These are literature values, as cited in patent publication US6191103A, “Methods for enhancing thrombolysis in a mammal” (priority 1997, dated 2001).

For this data set the following is noted: in vivo.

For “tPA: tissue-type plasminogen activator, fibrinolytic agent”, the plasma half-life result is listed as “around 5 minutes”.
